Measured values from paper PMC10899749.

Experiments:
[1] = test system: H-NS (Edwardsiella piscicida EIB202); assay: competition EMSA; conditions: EMSA: 20 ng Cy5 probe, 20 mM Tris pH 8.0, 150 mM NaCl, 0.1 mM DTT, 0.1 mM EDTA, 200 ng poly(dI:dC), 25 C, 30 min; 10% PAGE in Tris-glycine at 4 C
[2] = test system: H-NS K120ace (Edwardsiella piscicida EIB202); assay: competition EMSA; conditions: EMSA: 20 ng Cy5 probe, 20 mM Tris pH 8.0, 150 mM NaCl, 0.1 mM DTT, 0.1 mM EDTA, 200 ng poly(dI:dC), 25 C, 30 min; 10% PAGE in Tris-glycine at 4 C

For PesrB (esrB promoter), the binding signal (% H-NS-bound DNA lost) [1] was 43 and the binding signal (% H-NS K120ace-bound DNA lost) [2] was 87.
